Results on 140 substances are retold here after the supplement of paper PMC12042874.

± gives the uncertainty stated by the source.

The series in a line: amyloid nucleation score (Sup35N fusion, yeast selection) (log enrichment); library NNK2; higher = more nucleation; inactive = no reads after selection. The method, boiled down: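 The nucleation score is the DiMSum log enrichment of output over input reads, centred on the mode score of non-aggregating sequences. Only sequences with 100 or more input reads were scored, using Illumina sequencing of input and output plasmid inserts. Psi-negative yeast expressing Sup35N fused to peptides of 20 random codons were induced 24 hours with 100 μM copper sulfate and grown 7 days at 30°C on medium lacking adenine and uracil.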
As to DCRDLFLKKVWGYVGRLCEV, the amyloid nucleation score entry is “inactive”. With KAANVAEDSR, the amyloid nucleation score was 0.978 ± 0.47.

For EFLYKLRLSLSMGCGHEELG, the amyloid nucleation score amounted to 4.72 ± 0.061.

DISYGSSDINHCLVTYMWQC registered an amyloid nucleation score of 0.192 ± 1. Regarding YQIAWI, the amyloid nucleation score was -0.719 ± 0.46. KLVGMPFSSVACNSFKHRSE yielded an amyloid nucleation score of 0.408 ± 0.16.

YLRMDLVKWKWVGDGSQVC showed an amyloid nucleation score of 2.86 ± 0.08. VTGIATTS displayed an amyloid nucleation score of 0.44 ± 0.3. The substance LVSYNITFEYHNGKGCGEYG displayed an amyloid nucleation score of 3.63 ± 0.12. Take GVTWTV: the amyloid nucleation score was -0.104 ± 0.25. AGSNDEKNRWVTSL: the amyloid nucleation score is -0.22 ± 1.

As to IVKYLVCEQTKILCMMCTCD, the amyloid nucleation score was 8.891 ± 0.068. As to HKGVLEINSRVETLRSSAVN, the amyloid nucleation score is -0.545 ± 0.63. As to PTGPNSGNCIVLCPSDKSHE, the amyloid nucleation score was -0.363 ± 1.1. As to MTLIAVDSLSYLWANDNRRG, the amyloid nucleation score stood at 0.353 ± 0.36. The value for LIVCWGMWFLQW was -1.74 ± 1.1. Turning to KASHSVTRSLSVAYI, the amyloid nucleation score is -0.714 ± 0.38. As for RTMSNGSDVCFNNGMFHYLN, the figure is -1.04 ± 0.76. SDLWSIPFFGFGDPPMGFFR: the amyloid nucleation score entry was “inactive”. With SFVTTKSSFL, the amyloid nucleation score was -0.205 ± 0.74. The value for HLLHGPFMSLGG was -0.973 ± 1. For the substance VMYYEGG, the amyloid nucleation score was -0.561 ± 0.63. In turn, VSYYIRVYF came in with an amyloid nucleation score of 5.648 ± 0.054. As for SRANMQSRCRLNNQSVYGKL, the figure is -0.175 ± 0.45; as for LMSYVSSRNVSLQFIFVLPL, 5.55 ± 0.069; as for IINYANLSTVVNFYIRIGYC, 6.812 ± 0.028.

For VPVTGSNLPAVCKGHGVEYG, the amyloid nucleation score is -0.045 ± 0.41. The substance WCFCSLLCVSGCLRPDPELP returned an amyloid nucleation score of 1.28 ± 0.22. Consider EESFYTTPLSVFCVNLRYIV, for which the amyloid nucleation score was -0.383 ± 1.1.

Turning to YVSECVANA, the amyloid nucleation score result was “inactive”. With KKERPNMSWGDHY, the amyloid nucleation score was -0.78 ± 1. As for LLRVMLHISLVMC, the figure is -1.34 ± 0.53; as for TDNNNVYYVYSLQVIPTVSD, -0.496 ± 0.32.

As for NGNIKFFHRMRRTRHVACLY, the amyloid nucleation score is 0.223 ± 0.39.

As for IFVALEIGVVNVDQVAKDVC, the amyloid nucleation score is 6.75 ± 0.069. Regarding LSHRNPASRNYRPWQLNC, the amyloid nucleation score came out at 0.245 ± 0.29. The substance ASALGRWFTPHVSFIKYGGA registered an amyloid nucleation score of 0.531 ± 0.49. Regarding SLRYLHFGVDHLS, the amyloid nucleation score was found to be 3.94 ± 0.055. For the substance GTQRAYGVKGKLETDLIRLK, the amyloid nucleation score is 8.554 ± 0.059. Turning to SIRSFSFISESNQLLEHVRK, the amyloid nucleation score came out at 0.119 ± 0.54.

Turning to GYEASHSRFASSHLTPWGKR, the amyloid nucleation score was 1.74 ± 0.32. Turning to EVLTVYFARRFVESSGRGTG, the amyloid nucleation score was determined as 2.38 ± 0.13. For the substance SDKGYCSTFNMRQALWDYGQ, the amyloid nucleation score was 0.081 ± 1.1. In the case of LAWWFY, the amyloid nucleation score is -0.325 ± 0.76. In turn, GTVLAIRQLVSRCSGGVVGG yielded an amyloid nucleation score of 1.28 ± 0.24. MNHISLFFRSEVQVCGVFC showed an amyloid nucleation score of 8.609 ± 0.052. With SDVYLTICHFFGHNLKVLPR, the amyloid nucleation score stood at 1.38 ± 0.26. VQVCKMICRFISLWGLLA displayed an amyloid nucleation score of 0.006 ± 0.44. The value for FPQWFHFGCNLARSL was -0.613 ± 0.46; that for SLYLSWYDIFLMYGCWNVVR was 0.638 ± 0.37; that for LCSTHVMKLWFYVSFLLF was -0.397 ± 0.78. ICRDWVDDNVFKIMGRTQRS yielded an amyloid nucleation score of 0.099 ± 0.45. SLVCM: the amyloid nucleation score is -0.713 ± 0.29. In the case of TATGTIECMVYPLTFSSLSP, the amyloid nucleation score was -0.1 ± 1. VFAYYIDRARSSRVPCTVAN came in with an amyloid nucleation score of 4.28 ± 0.12.

The substance GIFWTVNIGEICGAIEWSEG showed an amyloid nucleation score of 0.276 ± 0.29.

As to YRAGLGALEGSVLHAGKW, the amyloid nucleation score result was “inactive”. As for SYYEFVVNLGKPAISVDSIT, the amyloid nucleation score amounted to 0.349 ± 0.51. PTSNLSWVT came in with an amyloid nucleation score of 1.71 ± 0.17. The substance LTSMEARLQMKVRDGFQNGE returned an amyloid nucleation score of 0.437 ± 0.49. As for FITNFGACRYCCRWHM, the figure is 6.184 ± 0.042. GIISRMGAVSLNLMLQKRAS had an amyloid nucleation score of 0.8 ± 0.46. For the substance DDFNERSSLHVVYDRF, the amyloid nucleation score was -0.901 ± 1. Turning to MGLPSIF, the amyloid nucleation score stood at 5.89 ± 0.092. In turn, VLVSGYDLVVVDRVYLGRMF displayed an amyloid nucleation score of 2.56 ± 0.085.

As for FTPIGIIMYSFFKRTFTFVT, the amyloid nucleation score is -1.06 ± 1.1. The value for FVWGREMGCWCQEWYRCMRN was -0.015 ± 0.24; that for VEFVVPKI was -0.586 ± 1.1; that for LFTVWVASVVWSCADVA was -1.34 ± 0.78.

In the case of LWYMMYLRPLWVRPKIDNEV, the amyloid nucleation score is 1.11 ± 0.24. In the case of MVSFGSGGELFFMHTQFSAR, the amyloid nucleation score was -0.311 ± 0.64. With LNWTTGFSDSAPVICPDTMH, the amyloid nucleation score is -1.56 ± 1.1.

Substance MSFFYDMEEWRMCLRLARYR registered an amyloid nucleation score of 3.82 ± 0.07. In the case of YYYTLLSLHHMFCVTYELSG, the amyloid nucleation score worked out at 5.443 ± 0.035. Consider ETCSAVFIN, for which the amyloid nucleation score worked out at 0.041 ± 0.62.

On to DYIIVRMCADILSGSVHGAM, for which the amyloid nucleation score is -0.068 ± 0.45. For YAGYNISCP, the amyloid nucleation score entry is “inactive”. The value for HFWVLFMLEETQSKFYLQST was -0.923 ± 0.64. The value for VLITKYSFTRLEFTIKVTSS was 0.386 ± 0.57; that for VPKVKNLDWSSELAKFKLEV was 2.95 ± 0.1; that for QFGNVRLSS was 0.995 ± 0.53. The value for NSAVATYCVVGQVPEK was 0.883 ± 0.44; that for MFVLFWVVNSTDLCGTAPLV was 0.205 ± 0.61. As to RKLIYSICKYVFALSVTIVG, the amyloid nucleation score is -1.3 ± 0.32. As to YNVDTVYLRGSLLRSYDWCF, the amyloid nucleation score is -2.32 ± 1.1. In the case of IPRSPCDKENKSRHLHVAWA, the amyloid nucleation score is -0.372 ± 0.45. In the case of VKWTTVVD, the amyloid nucleation score was 0.963 ± 0.26. As for RAQFIQLGDEYYTRC, the figure is 0.564 ± 0.49. For the substance HSAIDMWS, the amyloid nucleation score was -0.903 ± 0.44.

Consider YMLTIRFICFGAVGHSDMHE, for which the amyloid nucleation score was 0.672 ± 0.18. For RASVFF, the amyloid nucleation score entry was “inactive”. As for SRVYRCGWLGS, the figure is 0.274 ± 0.65. As for DLFVSGTVETFPANWGGMSR, the figure is 0.665 ± 0.42. Take LVKTVDYAALPRICDVGRGQ: the amyloid nucleation score was 3.96 ± 0.075.

Consider LPMLRHTYNCFSVACIGIFC, for which the amyloid nucleation score is -0.204 ± 0.3. RLKGGFVEGPSGRVTCVRIT gave an amyloid nucleation score of 0.132 ± 0.38. Take NTLYSFVRGCKPRMEFNRVK: the amyloid nucleation score is -0.965 ± 1. For the substance LTVRELLFTSRRHRARRHSC, the amyloid nucleation score was found to be 1.81 ± 0.32. Turning to CIFFPRGSNFFLFQMCGLSF, the amyloid nucleation score is 3.83 ± 0.097. For the substance LYSLYTYVKRYCASRVRHRY, the amyloid nucleation score is 0.688 ± 0.81.

For IIHDEVSLPWI, the amyloid nucleation score result is “inactive”. As to YLLALRCLFLLYRVYWFSIE, the amyloid nucleation score was -0.129 ± 0.39. Take YLSGLIIS: the amyloid nucleation score is -0.593 ± 1.1.

For SFKLYLYVGAVFFRLLSLVS, the amyloid nucleation score is -1.08 ± 0.76.

Consider SGCPNDWQYFSS, for which the amyloid nucleation score is -1.08 ± 0.54. Consider KCWNRYKHSDDIYGVGFPSI, for which the amyloid nucleation score was -1.09 ± 1. In the case of VPSHRPFVYHRKDLGFLGSV, the amyloid nucleation score was 0.269 ± 0.6. The substance SDSTSVLPGRTYWVHFSAQG yielded an amyloid nucleation score of 0.086 ± 0.61. Turning to RKKMGFF, the amyloid nucleation score result was “inactive”. For TWKTSLS, the amyloid nucleation score result was “inactive”. As for VNVYLFYYYPHSSHCYIF, the figure is 7.658 ± 0.056; as for YACFRPFSDTRRRCGFSTL, “inactive”; as for RSMISRAIYWQSWSTREERT, 1.86 ± 0.093.

For the substance GKCWRVRASIFVGILFKIAG, the amyloid nucleation score was found to be 0.486 ± 0.8. On to SRSAWLRELDPPA, for which the amyloid nucleation score is 0.839 ± 0.43. SNESNFIVICVCMDCIRGGG: the amyloid nucleation score entry was “inactive”. ASHLWDGRSAWHTVLSLPVT displayed an amyloid nucleation score of 1.08 ± 0.18.

Substance RMLGALFGMHVNYRAVSELF registered an amyloid nucleation score of 1.49 ± 0.12. Consider HDMEYKVMDRIARM, for which the amyloid nucleation score is -0.501 ± 1.1. The substance RFGSLVFFCTGFERSWHTSA had an amyloid nucleation score of 0.684 ± 0.44. In turn, GFKSFEHL yielded an amyloid nucleation score of 1.91 ± 0.14.

As for WFSECCSMASIGHSDTMDGS, the amyloid nucleation score is -0.567 ± 1.1. The value for GGWLAWVRKSYVIVFVWGGG was 0.257 ± 0.46; that for FLKSVSVRVGVILQAHAQEV was 0.375 ± 0.57. In turn, HCVLYCNMALFLQRSHRASC showed an amyloid nucleation score of 8.484 ± 0.039. In the case of YGAWRFGRLALSRRPSYCGM, the amyloid nucleation score was -0.271 ± 0.27.

GSLARSTD: the amyloid nucleation score was 1.25 ± 0.15. In the case of FSHNTEFRVGCGYEFAVGKA, the amyloid nucleation score is -0.262 ± 0.79.

Consider LSDIRWMSCGGVL, for which the amyloid nucleation score is -0.602 ± 1.1. Consider VSIFMQRR, for which the amyloid nucleation score is 2.76 ± 0.13. LNSPLIPVRLMGVVRFQLLD: the amyloid nucleation score is -0.459 ± 0.39. Substance RCFCG yielded an amyloid nucleation score of 0.226 ± 0.35. As for HLFLRFADSSYWIS, the figure is 1.24 ± 0.35; as for WFRKGHHVVT, 1.08 ± 0.41.

As to DLLQREIDRSIVRLWIMEKG, the amyloid nucleation score was determined as 0.252 ± 0.49.

Substance AFVSYLCCGMYRVANSKSEG registered an amyloid nucleation score of 9.903 ± 0.058. Take VRISAMVITV: the amyloid nucleation score is -0.684 ± 0.55. With LMSGVLGRWLKKSSKFQESL, the amyloid nucleation score was -0.653 ± 1.1. NVVQMMSVEFMPMVHVSAIL: the amyloid nucleation score is 4.23 ± 0.063. KIFFKNDGAGSVWPSNKLYF: the amyloid nucleation score was -1.29 ± 1.
